# System: Escherichia coli TOP10
# Assay: shrunken log2 fold change of peptide-encoding DNA abundance (4.5 h post-induction vs induction); higher = less antimicrobial activity (less host growth inhibition)
# Settings: time post-induction: 4.5 h; library: site-saturation at positions 5, 18, 19, 20
# 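Also: peptides expressed intracellularly from a pBAD plasmid library in pooled LB shake-flask culture, induced with 0.3% L-arabinose, DNA abundance read by NGS, three biological replicates, DESeq2 with apeglm shrinkage.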
row,Sequence,shrunken log2 fold change
1,RRIRERPPRLPRPRPRPHLKPRP,-0.268
2,RRIRGRPPRLPRPRPRPQPHPRP,0.582
3,RRIRVRPPRLPRPRPRPSWYPRP,-0.698
4,RRIRARPPRLPRPRPRPPWRPRP,0.816
5,RRIRWRPPRLPRPRPRPVIVPRP,-0.0785
6,RRIRARPPRLPRPRPRPVTQPRP,0.0996
7,RRIRERPPRLPRPRPRPMIDPRP,-0.28
8,RRIRNRPPRLPRPRPRPKERPRP,0.0296
9,RRIRQRPPRLPRPRPRPDTGPRP,-0.0117
10,RRIRARPPRLPRPRPRPIDIPRP,0.0327
11,RRIRIRPPRLPRPRPRPAMRPRP,1.37
12,RRIRLRPPRLPRPRPRPPTTPRP,0.449
13,RRIRARPPRLPRPRPRPLHSPRP,0.0941
14,RRIRIRPPRLPRPRPRPTCLPRP,-0.0168
15,RRIRYRPPRLPRPRPRPYQYPRP,-1.05
16,RRIRHRPPRLPRPRPRPVWNPRP,-0.402
17,RRIRIRPPRLPRPRPRPYQMPRP,-0.35
18,RRIRFRPPRLPRPRPRPVREPRP,0.269
19,RRIRERPPRLPRPRPRPRMGPRP,-0.173
20,RRIRSRPPRLPRPRPRPTKIPRP,0.00311
21,RRIRYRPPRLPRPRPRPCRTPRP,-0.651
22,RRIRWRPPRLPRPRPRPKGVPRP,0.109
23,RRIRARPPRLPRPRPRPKHKPRP,0.172
24,RRIRMRPPRLPRPRPRPVFEPRP,0.59
25,RRIRTRPPRLPRPRPRPQINPRP,-0.348

row,Sequence,shrunken log2 fold change
1,RRIRHRPPRLPRPRPRPGFEPRP,0.373
2,RRIRERPPRLPRPRPRPHITPRP,-0.99
3,RRIRGRPPRLPRPRPRPYRLPRP,-0.233
4,RRIRRRPPRLPRPRPRPYLIPRP,-0.082
5,RRIRDRPPRLPRPRPRPRYSPRP,-0.662
6,RRIRYRPPRLPRPRPRPEKKPRP,-0.0472
7,RRIRTRPPRLPRPRPRPRKLPRP,-0.073
8,RRIRRRPPRLPRPRPRPCANPRP,-0.0911
9,RRIRGRPPRLPRPRPRPSAVPRP,1.39
10,RRIRDRPPRLPRPRPRPKDPPRP,-0.00415
11,RRIRTRPPRLPRPRPRPDSMPRP,0.0768
12,RRIRHRPPRLPRPRPRPLPWPRP,0.108
13,RRIRIRPPRLPRPRPRPMYHPRP,-0.839
14,RRIRLRPPRLPRPRPRPRSYPRP,-0.227
15,RRIRGRPPRLPRPRPRPCRVPRP,-0.0297
16,RRIRNRPPRLPRPRPRPQDWPRP,-0.133
17,RRIRTRPPRLPRPRPRPFQLPRP,-0.138
18,RRIRIRPPRLPRPRPRPIGMPRP,-0.187
19,RRIRDRPPRLPRPRPRPLQPPRP,0.467
20,RRIRDRPPRLPRPRPRPRDFPRP,0.106
21,RRIRMRPPRLPRPRPRPLAEPRP,3.05
22,RRIRFRPPRLPRPRPRPGWQPRP,0.188
23,RRIRERPPRLPRPRPRPKWAPRP,0.0574
24,RRIRWRPPRLPRPRPRPYQTPRP,-0.223
25,RRIRWRPPRLPRPRPRPKDAPRP,0.362

row,Sequence,shrunken log2 fold change
1,RRIRERPPRLPRPRPRPYSDPRP,-0.308
2,RRIRRRPPRLPRPRPRPHFCPRP,0.00733
3,RRIRDRPPRLPRPRPRPEIIPRP,0.0753
4,RRIRSRPPRLPRPRPRPGTHPRP,-0.146
5,RRIRERPPRLPRPRPRPNRKPRP,-0.0495
6,RRIRFRPPRLPRPRPRPFMWPRP,-0.168
7,RRIRPRPPRLPRPRPRPRMVPRP,-0.263
8,RRIRRRPPRLPRPRPRPKSKPRP,0.165
9,RRIRGRPPRLPRPRPRPPQYPRP,0.38
10,RRIRSRPPRLPRPRPRPFPYPRP,-0.115
11,RRIRERPPRLPRPRPRPLHNPRP,-0.388
12,RRIRWRPPRLPRPRPRPLYSPRP,-0.247
13,RRIRIRPPRLPRPRPRPWQTPRP,0.0238
14,RRIRTRPPRLPRPRPRPFACPRP,-0.198
15,RRIRHRPPRLPRPRPRPCDLPRP,-0.502
16,RRIRWRPPRLPRPRPRPIHAPRP,0.0364
17,RRIRLRPPRLPRPRPRPWLMPRP,-0.102
18,RRIRTRPPRLPRPRPRPSHTPRP,-0.0162
19,RRIRTRPPRLPRPRPRPYAEPRP,-0.612
20,RRIRHRPPRLPRPRPRPVATPRP,-0.079
21,RRIRGRPPRLPRPRPRPHAIPRP,0.46
22,RRIRLRPPRLPRPRPRPPRVPRP,0.536
23,RRIRRRPPRLPRPRPRPRRHPRP,0.218
24,RRIRVRPPRLPRPRPRPGASPRP,0.583
25,RRIRYRPPRLPRPRPRPNCNPRP,-0.962
